Measured values as given in PMC9032829.
“And” between values parts separate entries of the source, which are not always exact repeats. Identical values can stand only once.

Biological target: entire receptor binding domain (RBD) of SARS-CoV-2 Spike protein (SARS-CoV-2) (UniProt P0DTC2)
Assay: SPR

In the case of “soluble αvβ3 integrin (from UniProt P06756;P05106) (complex)”, the Kd is reported as 0.0063 µM and 0.0593 µM.
